Substitutions are numbered along the chain they refer to. In names and notes the source's numbering stands.
Key:
[1] = biological target: T1, human VEGF-C (human, UniProt P49767 103-227); test: binding ELISA on coated VEGFC
T1 construct: also called hVEGF-C
T1 sequence (looked up): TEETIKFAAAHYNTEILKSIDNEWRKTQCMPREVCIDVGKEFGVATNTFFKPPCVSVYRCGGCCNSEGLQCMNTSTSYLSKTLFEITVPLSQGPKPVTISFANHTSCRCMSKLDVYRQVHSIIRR
Experimental: Binding to VEGFB, VEGFC, VEGFD and PIGF is assessed via a solid phase binding ELISA. In brief, VEGFB, VEGFC, VEGFD and PIGF (R&D Systems, Minneapolis, Minn., USA) are coated overnight at 4° C. at 1 μg/mL in a 96-well MaxiSorp plate (Nunc, Wiesbaden, Germany). Wells are blocked with a casein solution (1% in PBS). […] As positive controls serial dilutions of the appropriate receptors are taken along and detected with horseradish peroxidase (HRP)-conjugated goat anti-human IgG, Fc specific antibody (Jackson Immuno Research Laboratories Inc., West Grove, Pa., USA) and a subsequent enzymatic reaction in the presence of the substrate TMB (3,3′,5,5′-tetramentylbenzidine) (Pierce, Rockford, Ill., USA).

[2] = biological target: T2, recombinant human VEGF165 (human, UniProt P15692-4 27-191); test: Biacore epitope binning, VEGF165 captured on immobilised VEGFBII23B04
T2 construct: also called hVEGF165; rhVEGF165
T2 sequence (P15692 other isoform, or with tags, fused parts or gaps limits assumed): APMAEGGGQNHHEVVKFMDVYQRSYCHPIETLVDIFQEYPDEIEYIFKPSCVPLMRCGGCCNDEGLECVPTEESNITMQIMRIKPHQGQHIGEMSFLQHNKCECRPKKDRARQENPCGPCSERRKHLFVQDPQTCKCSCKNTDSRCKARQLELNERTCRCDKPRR
Experimental: Biacore-based epitope binning experiments are performed to investigate which VEGF binders bind to a similar or overlapping epitope as VEGFBII23B04. To this end, VEGFBII23B04 is immobilized on a CM5 sensor chip. […] Purified VHHs (100 nM) or periplasmic extracts (1/10 diluted) are then injected with a surface contact time of 240 seconds and a flow rate of 10 uL/minute. Between different samples, the surface is regenerated with regeneration buffer (100 mM HCl). Processed curves are evaluated with Biacore T100 Evaluation software.

[3] = biological target: T2, recombinant human VEGF165; test: ProteOn, periplasmic extract 1/10 on hVEGF165 chip
Source text: One additional variant is constructed in which the potential oxidation site at position M30 (CDR1 region, see FIG. 19 indicated as bold italic residue) is removed by introduction of a M30I mutation.

[4] = biological target: T2, recombinant human VEGF165; test: VEGF165/VEGFR2 AlphaScreen

B1: human VEGFR2-Fc chimera (Fc fusion, UniProt P35968 20-764, looked up, not shown: a dimerising Fc or GST)
chain: ASVGLPSVSLDLPRLSIQKDILTIKANTTLQITCRGQRDLDWLWPNNQSGSEQRVEVTECSDGLFCKTLTIPKVIGNDTGAYKCFYRETDLASVIYVYVQDYRSPFIASVSDQHGVVYITENKNKTVVIPCLGSISNLNVSLCARYPEKRFVPDGNRISWDSKKGFTIPSYMISYAGMVFCEAKINDESYQSIMYIVVVVGYRIYDVVLSPSHGIELSVGEKLVLNCTARTELNVGIDFNWEYPSSKHQHKKLVNRDLKTQSGSEMKKFLSTLTIDGVTRSDQGLYTCAASSGLMTKKNSTFVRVHEKPFVAFGSGMESLVEATVGERVRIPAKYLGYPPPEIKWYKNGIPLESNHTIKAGHVLTIMEVSERDTGNYTVILTNPISKEKQSHVVSLVVYVPPQIGEKSLISPVDSYQYGTTQTLTCTVYAIPPPHHIHWYWQLEEECANEPSQAVSVTNPYPCEEWRSVEDFQGGNKIEVNKNQFALIEGKNKTVSTLVIQAANVSALYKCEAVNKVGRGERVISFHVTRGPEITLQPDMQPTEQESVSLWCTADRSTFENLTWYKLGPQPLPIHVGELPTPVCKNLDTLWKLNATMFSNSTNDILIMELKNASLQDQGDYVCLAQDRKTKKRHCVVRQLTVLERVAPTITGNLENQTTSIGESIEVSCTASGNPPPQIMWFKDNETLVEDSGIVLKDGNRNLTIRRVRKEDEGLYTCQACSVLGCAKVEAFFIIEGAQEKTNLE
notes: bought (R&D Systems); also called hVEGFR2-Fc; VEGFR2-huFc
[1]
  EC50 (read off the curve): ~4 nM

B2: VEGFBII03D12 (VHH)
VHH: EVQLVESGGGLVQAGGSLRLSCTASTSIYTITVMAWFRQAPGKEREFVAAITWSAPTTYYADSVKGRFTISRDNAKNTVYLRMNSLKPEDSAIYYCAADRFKGRSIVTPSDYRYWGQGTQVTVSS
[2]
  binding result: binds

B3: VEGFBII119G11 (VHH)
VHH: EVQLVESGGGLVQPGGSLRLSCAASGIRFMSMAWYRQAPGKQRELVARISSGGTTAYADSVKGRFTISRDNSKNTVYLQMNSLRAEDTAVYYCNTFSSRPNPWGQGTLVTVSS
notes: humanization variant of VEGFBII5B05; tested as periplasmic extract
[3]
  Binding level (RU): 234 RU
  koff: 0.0775 s⁻¹

B4: VEGFBII120E10 (VHH)
VHH: B3 VHH with A23V, M30I, Q42H, A58V, R84K, Q105A, L108Q
notes: VEGFBII5B05 with the M30I mutation; tested as periplasmic extract
[3]
  Binding level (RU): 257 RU
  koff: 0.0468 s⁻¹

B5: VEGFBII05B02 (VHH)
VHH: EVQLVESGGGLVQAGGSLRLSCAASGRTFSTDDVGWFRQAPGKEREFVAVIRWSTGGTYTSDSVKGRFTLSRDNAKNTMYLQMNSLKPEDTAVYYCAARSRPLGAGAWYSGEKHYNYWGQGTQVTVSS
[2]
  binding result: binds

B6: VEGFBII05B03 (VHH)
VHH: EVQLVESGGGLAQAGDSLRLSCAASGRSFSHYNMGWFRQAPGKEREFVASIRGGGGSTTYANSVKDRFTISRENAKNTVYLQMNSLKPEDTAVYYCAATAFYRGPYDYDYWGQGTQVTVSS
[2]
  binding result: binds

B7: VEGFBII06G02 (VHH)
VHH: EVQLVESGGGLVQPGGSLRLSCAASGNIFSNNAMAWYRQAPGKQRELVARISSGGGFTYYLDSVKGRFTVSRDNAKNTVYLQMNSLKPEDTAVYYCNAAYRTYNYWGQGTQVTVSS
[2]
  binding result: binds

B8: VEGFBII07D08 (VHH)
VHH: EVQLVESGGGLVQTGGSLRLSCAASGRTFSNYAMAWFRQAPGKEREFVSAINQRGSNTNYADSVKGRFTISRDSAKNSVFLQMNSLKPEDTAVYYCAASTWYGYSTYARREEYRYWGQGTQVTVSS
[2]
  binding result: binds

B9: VEGFBII08D09 (VHH)
VHH: EVQLVESGGGLVQAGGSLRLSCAASGRSFSDNVMGWFRQAAGKEREFVAHISRGGSRTEYAESVKGRFTISRDNTKKTMYLQMNSLKPEDTAVYYCAASRSVALATARPYDYWGQGTQVTVSS
[2]
  binding result: binds

B10: VEGFBII10C07 (VHH)
VHH: EVQLVESGGGLVQAGGSLSLSCAASARAFSNYAMGWFRQVPGREREFVAVITRSPSNTYYTDSVKGRFTISRDNAKNIVYLQMNSLKPEDTAVYYCAAHYWNSDSYTYTDSRWYNYWGQGTQVTVSS
[2]
  binding result: binds

B11: VEGFBII10E07 (VHH)
VHH: EVQLVESGGGLVQAGGSLRLSCAASGRTFSNYAMGWFRQAPGKERVLVADISSSGINTYVADAVKGRFTISRDNAKNTVYLQMNSLKPEDTAVYYCAASAWWYSQMARDNYRYWGQGTQVTVSS
[2]
  binding result: binds

B12: VEGFBII10G04 (VHH)
VHH: EVQLVESGGGLVQAGGSLRLSCAASGDTLSRYAMGWFRQAPGKEREFVASINTSGKRTSYADSMKGRFAVSRDNAKNTGYLQMNSLKLEDTATYYCAADRFFGSDSNEPRAYRYWGQGTQVTVSS
[2]
  binding result: binds

B13: VEGFBII10G05 (VHH)
VHH: EVQLVESGGGLVQAGESLRLSCVASGITFSNYNMGWFRQAPGKEREFVATIRHHGYDTYYAESVKGRFTISRDNAKNTVYLQMNSLKPEDTALYSCAKKLFWDMDPKTGFSSWGQGTQVTVSS
[2]
  binding result: binds

B14: VEGFBII11C08 (VHH)
VHH: EVQLVESGGGLVQAGGSLRLSCAASGRTLSSYGLGWFRQAPGKEREFVAAIGWSGSSTYYADSVKGRFTVSVDNAKNTVYLKMNSLEPEDTAVYYCAAKVRNFNSDWDLLTSYNYWGQGTQVTVSS
[2]
  binding result: binds

B15: VEGFBII11D09 (VHH)
VHH: EEQLVESGGGLVQAGGSLMLSCAASGRALSSYAIGWFRQAPGREREFVARISWSGANTYYADSVKGRFTISRGNAKNTVYLQMNSLKPEDTAAYYCAAQTTSKYDNYDARAYGYWGQGTQVTVSS
[2]
  binding result: binds

B16: VEGFBII11E04 (VHH)
VHH: EVQLVESGGGLVQAGGSLRLSCAASGRTFSSYAMGWFRQAPGKEREFVATISQSGYSTYYADSVKGRFTISRDNAKNTVNLQMNSLKPEDTAVYYCAADPFYSYGSPSPYRYWGQGTQVTVSS
[2]
  binding result: binds

B17: VEGFBII11E05 (VHH)
VHH: EVQLVESGGGLVQPGGSLRLSCASSGRLFSFSAMGWFRQAPGKEREFVAAFKWSGSTTYYADYVKGRFTISTDNAKNILFLQMNSLKPEDTAIYYCAVDRFYTGRYYSSDEYDYWGQGTQVTVSS
[2]
  binding result: binds

B18: VEGFBII11F12 (VHH)
VHH: EVQLVESGGGLVQSGGSLRLSCAASGRSFSSLAMGWFRQVPGKDREFVASISQSGITTSYADSVKSRFTISRDSAKNTVYLQMNLLKPEDTAVYYCATSVFYSTALTRPVDYRYWGQGTQVTVSS
[2]
  binding result: binds

B19: VEGFBII86H09 (VHH)
VHH: EVQLVESGGGLVQAGGSLRLSCTASGSAFKSYRMGWFRRTPGKEDEFVASISWTYGSTFYADSVKGRFTMSRDKAKNAGYLQMNSLKPEDTALYYCAAGAQSDRYNIRSYDYWGQGTQVTVSS
[2]
  binding result: binds

B20: VEGFBII41C05 (VHH)
VHH: EVQLVESGGGLVQAGGSLRLSCAASGRTFSVYTMGWFRQAPGKEREFVATISRTGDRTSYANSVKGRFTISRENAKNTVYLQMNSLKPEDTAVYSCAAGPIAPSPRPREYYYWGQGTQVTVSS
[2]
  binding result: binds

B21: VEGFBII114D03 (VHH)
VHH: EVQLVESGGGLVQTGDSLRLSCAVSGRTFSSYSMGWFRQAQGKEREFVVAISKGGYKYDSVSLEGRFTISKDNAKNTVYLQINSLRPEDTAVYYCASSRAYGSSRLRLADTYEYWGQGTLVTVSS
[4]
  % inhibition: 100%
  IC50: 0.227 nM

B22: VEGFBII118E10 (VHH)
VHH: B21 VHH with A23E, S60A, R86K, L120Q
notes: VEGFBII23B04 with the S60A mutation, purified protein
[4]
  % inhibition: 100%
  IC50: 0.189 nM
